From PMC3596311, “PTB-Associated Splicing Factor (PSF) Is a PPARγ-Binding Protein and Growth Regulator of Colon Cancer Cells” (PLoS ONE, 2013) come the findings set out here.

This assay has as its target T1, PSF, full-length, fused to the GAL4 DNA-binding domain (pFN11A-PSF) (human, UniProt P23246 1-707).
T1 construct: PTB-associated splicing factor (PSF), human, full-length cDNA (GenBank BC051192), 707 amino acids; CheckMate/Flexi Vector Mammalian Two-Hybrid System (Promega), vector pFN11A; also called Gal4-PSF; source: CV-1 cells, transiently transfected, mammalian two-hybrid fusion
T1 sequence (looked up): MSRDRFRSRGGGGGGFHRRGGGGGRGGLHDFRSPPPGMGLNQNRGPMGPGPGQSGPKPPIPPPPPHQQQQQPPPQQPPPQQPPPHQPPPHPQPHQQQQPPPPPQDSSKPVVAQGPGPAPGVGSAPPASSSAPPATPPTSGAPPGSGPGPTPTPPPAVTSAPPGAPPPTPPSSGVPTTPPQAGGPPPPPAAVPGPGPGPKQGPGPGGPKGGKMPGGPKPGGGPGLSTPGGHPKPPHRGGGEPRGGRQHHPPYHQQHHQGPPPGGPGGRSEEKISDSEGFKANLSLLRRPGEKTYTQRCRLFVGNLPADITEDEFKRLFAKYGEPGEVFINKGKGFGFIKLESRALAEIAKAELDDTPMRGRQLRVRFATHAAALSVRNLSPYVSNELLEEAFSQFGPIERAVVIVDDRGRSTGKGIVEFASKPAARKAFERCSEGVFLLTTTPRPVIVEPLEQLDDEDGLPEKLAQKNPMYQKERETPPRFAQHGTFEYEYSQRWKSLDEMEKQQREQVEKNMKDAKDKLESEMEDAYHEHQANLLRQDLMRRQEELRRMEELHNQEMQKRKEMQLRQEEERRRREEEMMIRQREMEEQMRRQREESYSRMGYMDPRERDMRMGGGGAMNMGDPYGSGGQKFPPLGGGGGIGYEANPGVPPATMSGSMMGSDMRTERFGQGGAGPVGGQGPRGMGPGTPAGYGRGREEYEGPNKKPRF
Kind of assay: two-hybrid; mammalian two-hybrid in CV-1 cells: GAL4 DNA-binding domain-PSF (pFN11A) and VP16-PPARγ1 (pFN10A), GAL4-UAS luciferase reporter; also with rosiglitazone 0.1–10 µM, which did not affect the interaction. Conditions: partners not purified. On the technique in general: A reporter such as luciferase makes a cellular process visible.

B1: PPARγ1, full-length, fused to the VP16 activation domain (pFN10A-PPARγ1) (natural protein, UniProt P37231-2 1-477, looked up)
chain: MTMVDTEMPFWPTNFGISSVDLSVMEDHSHSFDIKPFTTVDFSSISTPHYEDIPFTRTDPVVADYKYDLKLQEYQSAIKVEPASPPYYSEKTQLYNKPHEEPSNSLMAIECRVCGDKASGFHYGVHACEGCKGFFRRTIRLKLIYDRCDLNCRIHKKSRNKCQYCRFQKCLAVGMSHNAIRFGRMPQAEKEKLLAEISSDIDQLNPESADLRALAKHLYDSYIKSFPLTKAKARAILTGKTTDKSPFVIYDMNSLMMGEDKIKFKHITPLQEQSKEVAIRIFQGCQFRSVEAVQEITEYAKSIPGFVNLDLNDQVTLLKYGVHEIIYTMLASLMNKDGVLISEGQGFMTREFLKSLRKPFGDFMEPKFEFAVKFNALELDDSDLAIFIAVIILSGDRPGLLNVKPIEDIQDNLLQALELQLKLNHPESSQLFAKLLQKMTDLRQIVTEHVQLLQVIKKTETDMSLHPLLQEIYKDLY
notes: CheckMate/Flexi Vector Mammalian Two-Hybrid System (Promega), vector pFN10A; also called VP16-PPARγ; VP-16-PPARγ1; source: CV-1 cells, transiently transfected, mammalian two-hybrid fusion
As to B1, the “fold induction of GAL4 promoter-driven luciferase over empty vectors” value is 3 fold.
